Laboratory results: patent publication US20180162911A1, “POLYPEPTIDES FOR THE DIAGNOSIS AND THE TREATMENT OF C3 NEF ASSOCIATED C3 GLOMERULOPATHY” (INSERM (INSTITUT NATIONAL DE LA SANTÉ ET DE LA RECHERCHE …, priority 2015, published 2018)
Where no end group is shown, it is not given here.

Experiments:
[1] = target: C3bBb alternative pathway C3 convertase (UniProt P01024); assay: SPR (ProteOn XPR36), C3b on GLC chip, convertase formed with FB and FD, control IgG injected
[2] = target: C3bBbP Properdin-stabilized alternative pathway C3 convertase (UniProt P01024); assay: SPR (ProteOn XPR36), C3b on GLC chip, convertase formed with FB, FD and FP, control IgG injected
[3] = target: T1, Properdin (Homo sapiens, UniProt P27918); assay: Peptide inhibition assay: inhibition of the stabilization of the C3 convertase mediated by Properdin (haemolytic, membrane-bound C3bBb); type: biochemical; details: for dose dependence of inhibition of Properdin stabilization: different doses of peptides; for % inhibition of the Properdin stabilization capacity: 50 ng Properdin pre-incubated with 10 μg peptide 2 h at room temperature, n=2 experiments
T1 construct: purchased Calbiochem
Procedure: (§1) The ability of patient' IgG to stabilize a pre-formed membrane bound C3bBb was measured with EAC3bBb generated by the incubation of EC3b with appropriate concentration of FB and FD. Briefly, IgG was partially purified from plasma by chromatography on DEAE-cellulose and subsequently quantified by nephelometry. DEAE eluate contains IgG, and also low levels of contaminants such as Properdin and Factor H. Sheep erythrocytes EAC34b were incubated in presence of FB (Complement Technology) and FD (Sigma) to form the alternative convertase C3bBb. The convertase was allowed to decay in EDTA-containing buffer in presence of 400 μg of patient' IgG. Lysis was developed by the addition of rat serum. C3NeF stabilization was measured as the percentage of the residual convertase compared to the reference control without decay. The cut-off for positive C3NeF was determined as the mean+2 sd of the C3NeF stabilization of IgG from 30 healthy individuals.
Different mixes of 50 ng of Properdin and 10 μg of peptides were incubated at room temperature for 2 hours with gentle shaking in EDTA-containing buffer. As a control, Properdin was incubated with the peptide's dilution buffer. Membrane-bound convertase was formed as in the C3bBb assay. During the convertase decay step, cells were incubated with the mix of FP and peptides. FP amount was chosen in order to obtain 50% of residual convertase after the decay. Residual convertase was measured and data were expressed as percentage of inhibition (percentage of residual convertase compared to the control without peptide).

[4] = test system: C3NeF (patient IgG); assay: Peptide inhibition assay with patients' IgG: reduction of C3NeF stabilization of the C3bBb convertase; type: biochemical, human; details: for decrease of % stabilization of P1 IgG: 100 μg IgG from P1 (stabilizes only C3bBb) taken as 100%, peptides pre-incubated overnight, n=3 experiments
Procedure: as §1
The test was performed as described earlier, but 80 μg of peptides was utilized and the incubation of IgG and peptides was made at 4° C. overnight. IgG amount was determined depending on their stabilization capacity, in order to obtain 50% of residual convertase after the decay.
Membrane-bound convertase was formed as in the C3bBb assay. During the convertase decay step, cells were incubated with a fixed dose of Peptides (80 μg) and patient' IgG (amount determined by the concentration of IgG leading to 50% of residual convertase). The concentration of IgG applied in the test was chosen depending on their C3NeF activity.

[5] = target: T1, Properdin; assay: ELISA, biotinylated peptides coated, binding of Properdin
Procedure: To investigate whether Properdin binds the peptides biotinylated peptides was coated onto ELISA plates and increased among of Properdin were incubated before adding anti human Properdin.

[6] = test system: C3NeF (patient IgG); assay: Peptide inhibition assay with patients' IgG: reduction of C3NeF stabilization of the C3bBb convertase; type: biochemical, human; details: P1 IgG
[7] = target: T2, membrane bound C3bBb convertase (Homo sapiens, UniProt P00751+P01024); assay: C3b erythrocyte based C3bBb convertase stabilization / competition assay; type: biochemical
T2 construct: EAC3bBb generated by the incubation of EC3b with appropriate concentration of FB and FD; incubated in presence of FB (Complement Technology) and FD (Sigma) to form the alternative convertase C3bBb; purchased Complement Technology (FB); Sigma (FD); host or cells: sheep erythrocytes coated with C3b
Procedure: as §1
Membrane-bound convertase was formed as in the C3bBb assay. During the convertase decay step, cells were incubated with FP alone at a fixed dose (800 ng); 4 different doses of IgG alone and a mix of both IgG and FP at the same concentration. […]
[…] Residual convertase was measured and data were expressed as percentage of inhibition (percentage of residual convertase compared to the control without peptide).

[8] = target: Properdin (human, UniProt P27918 28-469); assay: cell-based or functional assay
[9] = target: Properdin like C3NeF (3 patients' Ig positive for the C3bBb and negative for the C3bBbP test, Example 2); assay: cell-based or functional assay
[10] = target: Properdin enhancer C3NeF (4 patients' Ig positive in both tests, Example 2); assay: cell-based or functional assay
[11] = target: 3 C3NeF samples positive for the C3bBb and negative for the C3bBbP test (Example 1); assay: cell-based or functional assay
[12] = target: 3 C3NeF samples positive in both the C3bBb and the C3bBbP tests (Example 1); assay: cell-based or functional assay
[13] = in presence of Properdin_enhancer C3NeF
[14] = in presence of Properdin_like C3NeF

T1 sequence (P27918 28-469): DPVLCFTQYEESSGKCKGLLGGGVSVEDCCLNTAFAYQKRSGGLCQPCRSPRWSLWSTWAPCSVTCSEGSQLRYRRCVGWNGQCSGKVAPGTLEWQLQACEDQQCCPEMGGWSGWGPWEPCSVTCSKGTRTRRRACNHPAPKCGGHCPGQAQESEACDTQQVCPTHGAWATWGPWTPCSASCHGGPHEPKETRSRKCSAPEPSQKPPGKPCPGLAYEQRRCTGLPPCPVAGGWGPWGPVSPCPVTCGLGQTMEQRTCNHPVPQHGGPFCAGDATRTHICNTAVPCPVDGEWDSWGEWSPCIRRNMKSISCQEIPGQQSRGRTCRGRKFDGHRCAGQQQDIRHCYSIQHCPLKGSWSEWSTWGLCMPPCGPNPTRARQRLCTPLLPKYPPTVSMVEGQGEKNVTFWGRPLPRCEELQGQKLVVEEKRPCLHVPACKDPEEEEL
T2 sequence (P01024 23-667 limits assumed): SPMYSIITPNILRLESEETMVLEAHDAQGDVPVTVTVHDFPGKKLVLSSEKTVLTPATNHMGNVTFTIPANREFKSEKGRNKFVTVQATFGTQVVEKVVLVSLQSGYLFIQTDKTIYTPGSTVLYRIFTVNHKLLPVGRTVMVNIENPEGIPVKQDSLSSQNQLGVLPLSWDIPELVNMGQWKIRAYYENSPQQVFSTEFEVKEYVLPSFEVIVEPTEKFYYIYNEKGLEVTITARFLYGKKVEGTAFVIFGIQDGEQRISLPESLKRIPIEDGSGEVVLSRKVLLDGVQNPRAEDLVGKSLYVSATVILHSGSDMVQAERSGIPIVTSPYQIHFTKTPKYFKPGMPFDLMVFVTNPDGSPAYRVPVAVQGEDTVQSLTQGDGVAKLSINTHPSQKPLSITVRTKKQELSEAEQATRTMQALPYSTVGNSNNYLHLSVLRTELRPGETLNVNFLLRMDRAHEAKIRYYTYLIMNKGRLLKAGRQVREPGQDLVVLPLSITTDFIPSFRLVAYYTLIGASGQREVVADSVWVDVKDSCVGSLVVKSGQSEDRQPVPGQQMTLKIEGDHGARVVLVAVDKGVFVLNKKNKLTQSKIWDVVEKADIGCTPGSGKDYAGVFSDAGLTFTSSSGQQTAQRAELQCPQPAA
T2 sequence (P01024 749-1663 limits assumed): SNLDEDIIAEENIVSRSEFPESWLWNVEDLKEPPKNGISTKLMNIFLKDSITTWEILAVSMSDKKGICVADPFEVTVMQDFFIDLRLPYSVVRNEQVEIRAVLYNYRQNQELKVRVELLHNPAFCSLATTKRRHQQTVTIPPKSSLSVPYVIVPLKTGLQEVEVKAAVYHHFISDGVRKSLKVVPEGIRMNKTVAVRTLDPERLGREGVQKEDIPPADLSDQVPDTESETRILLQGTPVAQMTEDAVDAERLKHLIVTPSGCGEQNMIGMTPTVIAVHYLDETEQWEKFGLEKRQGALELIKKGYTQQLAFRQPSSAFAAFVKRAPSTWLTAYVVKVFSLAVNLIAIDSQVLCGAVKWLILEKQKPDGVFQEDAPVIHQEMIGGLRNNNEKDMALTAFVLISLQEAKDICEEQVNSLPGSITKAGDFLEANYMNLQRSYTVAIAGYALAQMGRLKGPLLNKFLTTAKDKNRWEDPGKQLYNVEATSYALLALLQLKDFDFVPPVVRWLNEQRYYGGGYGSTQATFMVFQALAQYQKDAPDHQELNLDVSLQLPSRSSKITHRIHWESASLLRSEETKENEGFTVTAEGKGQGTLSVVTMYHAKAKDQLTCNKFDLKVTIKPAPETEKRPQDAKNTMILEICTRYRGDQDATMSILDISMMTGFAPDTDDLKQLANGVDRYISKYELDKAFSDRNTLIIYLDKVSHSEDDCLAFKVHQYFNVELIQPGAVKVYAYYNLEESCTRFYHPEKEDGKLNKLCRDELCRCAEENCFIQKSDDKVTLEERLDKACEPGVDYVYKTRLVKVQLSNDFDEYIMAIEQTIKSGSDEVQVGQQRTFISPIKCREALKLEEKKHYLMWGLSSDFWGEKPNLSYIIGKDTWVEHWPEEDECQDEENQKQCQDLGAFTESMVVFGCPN
T2 sequence (P00751 260-764 limits assumed): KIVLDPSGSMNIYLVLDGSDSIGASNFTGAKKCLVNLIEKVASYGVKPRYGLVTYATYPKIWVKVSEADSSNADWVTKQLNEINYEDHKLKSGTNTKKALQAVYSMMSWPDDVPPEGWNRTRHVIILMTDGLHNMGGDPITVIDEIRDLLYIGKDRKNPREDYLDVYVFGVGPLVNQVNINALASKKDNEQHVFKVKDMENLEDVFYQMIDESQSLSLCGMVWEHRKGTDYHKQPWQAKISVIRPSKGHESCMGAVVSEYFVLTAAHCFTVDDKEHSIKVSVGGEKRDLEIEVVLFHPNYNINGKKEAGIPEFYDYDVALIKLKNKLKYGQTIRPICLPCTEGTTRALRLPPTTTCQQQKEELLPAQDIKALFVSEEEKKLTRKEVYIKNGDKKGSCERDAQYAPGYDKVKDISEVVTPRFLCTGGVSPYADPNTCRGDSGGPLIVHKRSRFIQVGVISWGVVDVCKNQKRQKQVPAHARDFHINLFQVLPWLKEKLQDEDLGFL
Properdin (human, UniProt P27918 28-469), sequence (P27918 28-469 limits assumed): as the sequence (P27918 28-469) above
C3bBb alternative pathway C3 convertase, sequence (P01024 23-667 limits assumed, form in doubt, chain 1 of 3): as the sequence (P01024 23-667 limits assumed) above
C3bBb alternative pathway C3 convertase, sequence (P01024 749-1663 limits assumed, form in doubt, chain 2 of 3): as the sequence (P01024 749-1663 limits assumed) above
C3bBb alternative pathway C3 convertase, sequence (P00751 260-764 limits assumed, form in doubt, chain 3 of 3, further chain): as the sequence (P00751 260-764 limits assumed) above
C3bBbP Properdin-stabilized alternative pathway C3 convertase, sequence (P01024 23-1663 limits assumed, chain 1 of 3): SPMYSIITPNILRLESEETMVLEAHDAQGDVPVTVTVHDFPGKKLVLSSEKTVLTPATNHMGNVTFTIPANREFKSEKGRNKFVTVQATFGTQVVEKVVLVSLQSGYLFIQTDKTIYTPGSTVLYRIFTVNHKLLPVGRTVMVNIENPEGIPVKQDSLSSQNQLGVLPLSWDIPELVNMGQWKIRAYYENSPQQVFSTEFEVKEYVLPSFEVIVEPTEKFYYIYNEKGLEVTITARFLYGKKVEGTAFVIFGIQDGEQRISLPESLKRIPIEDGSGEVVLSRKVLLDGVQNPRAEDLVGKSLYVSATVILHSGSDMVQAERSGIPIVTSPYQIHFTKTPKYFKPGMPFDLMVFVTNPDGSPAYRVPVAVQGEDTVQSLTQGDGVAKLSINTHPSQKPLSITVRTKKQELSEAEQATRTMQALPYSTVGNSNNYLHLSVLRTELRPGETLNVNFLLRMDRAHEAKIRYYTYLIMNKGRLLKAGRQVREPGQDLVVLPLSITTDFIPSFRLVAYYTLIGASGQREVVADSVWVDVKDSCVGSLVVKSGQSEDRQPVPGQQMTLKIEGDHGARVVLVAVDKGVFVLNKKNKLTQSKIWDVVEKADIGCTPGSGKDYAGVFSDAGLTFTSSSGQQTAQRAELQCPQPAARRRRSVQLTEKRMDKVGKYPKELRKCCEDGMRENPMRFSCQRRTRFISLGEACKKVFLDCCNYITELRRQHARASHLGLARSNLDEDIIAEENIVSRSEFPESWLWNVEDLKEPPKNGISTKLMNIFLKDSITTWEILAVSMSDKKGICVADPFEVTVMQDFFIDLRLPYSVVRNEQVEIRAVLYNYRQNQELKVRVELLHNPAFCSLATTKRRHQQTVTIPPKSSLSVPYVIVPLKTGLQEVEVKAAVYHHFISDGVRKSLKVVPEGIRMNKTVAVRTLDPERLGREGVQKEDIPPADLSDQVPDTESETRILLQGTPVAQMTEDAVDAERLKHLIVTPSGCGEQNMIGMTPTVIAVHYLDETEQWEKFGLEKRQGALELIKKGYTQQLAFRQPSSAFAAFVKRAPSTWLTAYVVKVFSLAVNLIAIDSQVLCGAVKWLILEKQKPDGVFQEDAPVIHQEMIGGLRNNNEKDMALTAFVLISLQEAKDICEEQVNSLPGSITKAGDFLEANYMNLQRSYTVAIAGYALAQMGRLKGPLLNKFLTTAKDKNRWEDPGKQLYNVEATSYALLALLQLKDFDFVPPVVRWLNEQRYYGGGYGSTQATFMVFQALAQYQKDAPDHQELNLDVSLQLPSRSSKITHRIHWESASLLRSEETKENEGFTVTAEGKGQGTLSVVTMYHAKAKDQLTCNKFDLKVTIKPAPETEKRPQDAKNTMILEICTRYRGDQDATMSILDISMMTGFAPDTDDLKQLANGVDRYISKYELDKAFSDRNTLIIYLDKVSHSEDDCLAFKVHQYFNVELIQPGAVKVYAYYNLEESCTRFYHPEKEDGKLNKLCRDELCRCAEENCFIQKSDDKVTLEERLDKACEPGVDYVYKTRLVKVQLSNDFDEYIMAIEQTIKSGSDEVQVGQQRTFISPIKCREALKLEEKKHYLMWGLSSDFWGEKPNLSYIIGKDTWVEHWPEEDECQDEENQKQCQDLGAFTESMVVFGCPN
C3bBbP Properdin-stabilized alternative pathway C3 convertase, sequence (P00751 260-764 limits assumed, chain 2 of 3, further chain): as the sequence (P00751 260-764 limits assumed) above
C3bBbP Properdin-stabilized alternative pathway C3 convertase, sequence (P27918 28-469 limits assumed, chain 3 of 3, further chain): as the sequence (P27918 28-469) above

Molecule: control IgG from healthy donors (antibody)
- IgG binding, residual (RU) [1]: 1 RU
- IgG binding, residual (RU) [2]: 13 RU

Molecule: SMVVFLKHDEYNIENLQKTVWD (Synthetic pep1BbExt) [22 aminoacids comprising 5 aa on C3b and 17 from FB]
- dose dependence of inhibition of Properdin stabilization [3]: dose-dependent
- percentage of inhibition vs control [4, 13]: No significant difference
- percentage of inhibition vs control [4, 14]: significantly higher
- capacity of peptides to bind Properdin [5]: binds

Molecule: G-QDEENQKQCQDLGAFTESMVVFNIENLQKTVWD (GQDEENQKQCQDLGAFTESMVVFNIENLQKTVWD; N-terminal G; Synthetic pep1) [peptide 1, 22 residues of C3b (1616-1637) and 11 residues of Bb (308-318)]
- dose dependence of inhibition of Properdin stabilization [3]: dose-dependent
- decrease of % stabilization of P1 IgG [4]: 40%
- C3NeF stabilization diminished ([4]; 3 C3NeF samples positive for the C3bBb and negative for the C3bBbP test): 20-40%
- C3NeF stabilization diminished ([4]; 3 C3NeF samples positive in both tests): 20-70%
- percentage of inhibition vs control [4, 13]: No significant difference
- percentage of inhibition vs control [4, 14]: significantly higher
- capacity of peptides to bind Properdin [5]: binds
- dose dependence of inhibition of IgG stabilization [6]: dose dependent

Molecule: GAFTESMVVFLKHDEYNIE (Synthetic short1)
- stabilization of the Convertase diminished ([4]; Example 2, Properdin enhancer C3NeF (4 patients' Ig positive in both tests), 80 μg peptide): 40-80%
- percentage of inhibition vs control [4, 13]: significantly higher
- percentage of inhibition vs control [4, 14]: No significant difference

Molecule: GENQKQCQDLGAFTESMVVFLKHDE (Synthetic pep1C3bExt)
- % inhibition of the Properdin stabilization capacity [3]: no effect
- percentage of inhibition vs control [4, 13]: No significant difference
- percentage of inhibition vs control [4, 14]: significantly higher

Molecule: Properdin: complement protein Properdin (Calbiochem), stabilizes the C3 convertase
- residual C3bBb lytic site ([7]; 800 ng of Properdin): 60%
- % of stabilization of C3 convertase ([7]; Properdin incubated with peptides' excipient): 40%

Molecule: G-EDEEPWEQITVV YPKIWV (GEDEEPWEQITVVYPKIWV; Synthetic pep2) [peptide 2, 3 parts of C3b and one part of the vWFA domain of Bb]
- % inhibition of the Properdin stabilization capacity [3]: no effect
- decrease of % stabilization of P1 IgG [4]: remained in the same range

Molecule: G-EERLDKACENNDSIGASNFTG (GEERLDKACENNDSIGASNFTG; Synthetic pep3) [peptide 3, residues of C3b and Bb, left side of the C3 convertase]
- % inhibition of the Properdin stabilization capacity [3]: no effect
- decrease of % stabilization of P1 IgG [4]: remained in the same range

Molecule: SMVVFLKHDEYNIENLQKTVWD (also: biotinylated when coated in ELISA) [Pep1BbExt]
- inhibition of the Properdin stabilization capacity [8]: 80%
- stabilization diminished [9]: 20 to 40%

Molecule: GENQKQCQDLGAFTESMVVFLKHDE [Pep1C3bExt]
- stabilization diminished [9]: 20 to 40%

Molecule: GAFTESMVVFLKHDEYNIE [short1]
- stabilization diminished [10]: 40 to 80%

Molecule: GQDEENQKQCQDLGAFTESMVVFNIENLQKTVWD (also: biotinylated when coated in ELISA) [Peptide 1]
- inhibition of the Properdin stabilization capacity [8]: 80%
- C3NeF stabilization diminished [11]: 20 to 40%
- C3NeF stabilization diminished [12]: 20 to 70%
- stabilization diminished [9]: 20 to 40%
